In PMC3988563:

Key:
[1] = biological target: Ribosome termination complex (70S ribosomes, fMet-STOP mRNA and fMet-tRNA^fMet) (E. coli); experiment: stopped-flow fluorescence; with RF3 preincubated with 1 mM GDP in the chase mixture
[2] = biological target: Ribosome termination complex (70S ribosomes, fMet-STOP mRNA and fMet-tRNA^fMet) (E. coli); experiment: stopped-flow fluorescence; as a12, with RF3 preincubated with 1 mM GTP in the chase mixture
[3] = biological target: Ribosome termination complex (70S ribosomes, fMet-STOP mRNA and fMet-tRNA^fMet) (E. coli); experiment: stopped-flow fluorescence; Fl-RF1 preincubated with ribosome complex, chased with excess unlabeled RF1, no RF3; Buffer 219 Tris pH 7.6, 26 C; double exponential fit, faster phase
[4] = biological target: Ribosome termination complex formed with GAQ-RF1 (E. coli) (UniProt P0A7I0); experiment: quick spin gel-filtration assay (Sephadex G-100) with SYPRO Ruby staining; as a8, RF3 preincubated with 2 mM GDP
[5] = biological target: Ribosome termination complex formed with wild-type RF1 (E. coli) (UniProt P0A7I0); experiment: as above
[6] = biological target: Ribosome termination complex formed with wild-type RF1 (E. coli) (UniProt P0A7I0); experiment: quick spin gel-filtration assay (Sephadex G-100) with SYPRO Ruby staining; as a8, no nucleotide added to RF3 (copurified with GDP 1:1; 'apo' assay, no free GDP or GTP)
[7] = biological target: Ribosome termination complex formed with GAQ-RF1 (E. coli) (UniProt P0A7I0); experiment: quick spin gel-filtration assay (Sephadex G-100) with SYPRO Ruby staining; RF3 preincubated with 2 mM GDPNP, mixed with release complexes (10 nM to 2 uM, threefold excess RF1), 10 min 37 C, Buffer 219 HEPES pH 7.6; quadratic fit; KD with wild-type RF1 complexes is called apparent (K_D,app)
[8] = biological target: Ribosome termination complex formed with wild-type RF1 (E. coli) (UniProt P0A7I0); experiment: as above
[9] = biological target: Ribosome termination complex (70S ribosomes, fMet-STOP mRNA and fMet-tRNA^fMet) (E. coli); experiment: other fluorescence titration; 1 nM fluorescein-labeled A220C RF1 titrated with ribosome complexes (0-52 nM) in 1X 219-HEPES buffer; excitation 491 nm, emission 515 nm; quadratic fit

Sequence of His-tagged RF3 (class 2 release factor) (P0A7I4 whole entry): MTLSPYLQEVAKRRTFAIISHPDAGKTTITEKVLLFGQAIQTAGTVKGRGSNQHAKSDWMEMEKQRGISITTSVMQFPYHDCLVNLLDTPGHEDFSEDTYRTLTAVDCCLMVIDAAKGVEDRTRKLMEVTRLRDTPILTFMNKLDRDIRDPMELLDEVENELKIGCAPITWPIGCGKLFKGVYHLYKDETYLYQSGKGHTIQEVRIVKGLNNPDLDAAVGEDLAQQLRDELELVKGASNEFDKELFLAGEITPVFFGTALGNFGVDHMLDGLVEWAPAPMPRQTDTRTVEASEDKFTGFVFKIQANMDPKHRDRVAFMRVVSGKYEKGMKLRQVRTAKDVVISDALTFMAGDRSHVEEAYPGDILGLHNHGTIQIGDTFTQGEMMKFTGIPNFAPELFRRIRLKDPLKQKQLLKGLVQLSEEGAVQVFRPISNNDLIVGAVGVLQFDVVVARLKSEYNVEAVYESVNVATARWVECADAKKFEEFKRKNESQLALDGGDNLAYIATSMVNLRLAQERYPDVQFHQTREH
Sequence of Ribosome termination complex formed with wild-type RF1 (E. coli) (P0A7I0 whole entry, looked up, one chain of several): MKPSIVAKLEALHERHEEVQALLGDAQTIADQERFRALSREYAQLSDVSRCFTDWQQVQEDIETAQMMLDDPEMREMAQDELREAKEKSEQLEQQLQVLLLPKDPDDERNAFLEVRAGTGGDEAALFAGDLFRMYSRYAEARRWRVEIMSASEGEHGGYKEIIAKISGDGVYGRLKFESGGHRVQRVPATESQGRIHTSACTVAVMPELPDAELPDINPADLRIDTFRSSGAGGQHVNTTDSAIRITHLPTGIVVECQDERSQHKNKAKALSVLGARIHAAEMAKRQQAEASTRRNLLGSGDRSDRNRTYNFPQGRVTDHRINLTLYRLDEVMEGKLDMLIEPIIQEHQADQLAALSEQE
Sequence of Ribosome termination complex formed with GAQ-RF1 (E. coli) (P0A7I0 whole entry, looked up, one chain of several): as above

With “Fluorescein-labeled single-cysteine RF1 (either L82C or A220C) (from UniProt P0A7I0 1-360) (natural protein)” the koff in the presence of RF3:GDP [1] was 0.3 s⁻¹, the koff in the presence of RF3:GTP [2] was 2.9 s⁻¹ and the koff [3] was 0.005 s⁻¹.

With “His-tagged RF3 (class 2 release factor) (from UniProt P0A7I4 1-529) (natural protein)” the Kd [4] was 1000 nM, the Kd [5] was 430 nM and the Kd [6] was 36 nM. The Kd [7] was 10 nM and the Kd [8] was 50 nM.

For “Fluorescein-labeled A220C RF1 (from UniProt P0A7I0 1-360) (natural protein)”, the Kd [9] was 2.5 nM.

“Fluorescein-labeled GAQ-RF1 (single-cysteine L82C or A220C) (from UniProt P0A7I0 1-360) (natural protein)” showed a koff in the presence of RF3:GTP [2] of 0.14 s⁻¹ and a koff [3] of 0.09 s⁻¹.
